Results on 1 molecule are retold here after article PMC10858199 (2024).

The target in the test is Amyloid-beta aggregates (Homo sapiens, UniProt P05067). Briefly: SPR. For orientation: In SPR one partner is held on a chip, and binding of the other changes the refractive index at the surface.

B1: CR4 I-domain (protein)
chain: RNFATMMNFVRAVISQFQRPSTQFSLMQFSNKFQTHFTFEEFRRSSNPLSLLASVHQLQGFTYTATAIQNVVHRLFHASYGARRDAAKILIVITDGKKEGDSLDYKDVIPMADAAGIIRYAIGVGLAFQNRNSWKELNDIASKPSQEHIFKVEDFDALKDIQNQLKEKIFAIEGT
The molecule B1 gave a Kd of about 1 µM.

For orientation: Kd means the free concentration of one partner at which half of the binding sites on the other are occupied at equilibrium, for simple one-to-one binding. Read a low Kd as a tighter complex.
